Measured values: patent US20230151104A1 (REMD BIOTHERAPEUTICS, published 2023)
“And” between values parts separate entries of the source, which are not always exact repeats. Equal values may be shown once.

Columns and labels:
[1] = target: T1, human CXCR4 (hCXCR4), on CXCR4-positive cell line "CXCR4 E4" (human, UniProt P61073-2 2-356); assay: FACS on CXCR4 E4 cells; serial dilution of Expi293F supernatant; anti-human IgG Alexa Fluor 647
T1 construct: FACS target: 'Positive cells lines (CXCR4 E4)'; also called chemokine receptor 4; HuCXCR4
Method: The DNA sequences encoding the chimeric antibody and humanized IgG heavy and light chains were synthesized and inserted into pCDNA3.4 vector to construct the expression plasmids of full-length IgGs. 18 humanized Abs were expressed in Expi293F cell culture, and then the cells were spun down. For affinity ranking, the supernatants were assayed by FACS against cell lines for the assessment of binding activity. Positive cells lines (CXCR4 E4) were cultured following the protocol and harvested by centrifugation. About 1×10⁵cells per well were washed with 1*PBS and incubated in a serial dilution of antibodies for 30 minutes at 4° C. After washing with PBS, secondary antibody [1 μg/ml Alexa Fluor® 647 AffiniPure Goat Anti-Human IgG (H+L)] was added to the cells and incubated in PBS for 30 minutes at 4° C. After washing with PBS, cells were analyzed for binding by using FACS Calibur (BD Bioscience, San Jose, Calif.) and Flowjo software. The antibodies were ranked by EC50.

[2] = target: T1, human CXCR4 (hCXCR4), on CXCR4-positive …; assay: FACS binding confirmation with purified IgG on CXCR4-expressing cells
[3] = target: tagged CXCR4 receptors stably expressed on recombinant CHO cells (human, UniProt P61072 1-352 (Pan troglodytes entry)); assay: cell-based or functional assay
Sequence of tagged CXCR4 receptors stably expressed on recombinant CHO cells (P61072 other isoform, or with tags, fused parts or gaps): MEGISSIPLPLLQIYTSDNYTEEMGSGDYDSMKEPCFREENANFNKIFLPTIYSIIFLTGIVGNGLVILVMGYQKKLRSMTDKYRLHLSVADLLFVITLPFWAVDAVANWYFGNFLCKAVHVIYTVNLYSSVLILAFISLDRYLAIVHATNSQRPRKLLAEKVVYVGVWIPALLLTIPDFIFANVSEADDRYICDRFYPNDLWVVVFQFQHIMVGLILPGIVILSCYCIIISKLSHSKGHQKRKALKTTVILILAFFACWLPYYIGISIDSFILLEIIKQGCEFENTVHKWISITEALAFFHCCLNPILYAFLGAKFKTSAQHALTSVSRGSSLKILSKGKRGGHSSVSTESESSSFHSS

T1 sequence (P61073 other isoform, or with tags, fused parts or gaps): as the sequence (P61072 other isoform, or with tags, fused parts or gaps) above

B1: humanized IgG 3 (VH1/VL3) (antibody)
heavy: not shown
light: DIVMTQSALSLPVTPGEPVSISCRSSKSLLHSNGNTYLYWFLQKPGQSPQLLIYRMSNLASGVPDRFSGSGSGTDFTLKISRVEAEDVGVYYCMQHVEYPLTFGGGTKLEIKRTVAAPSVFIFPPSDEQLKSGTASVVCLLNNFYPREAKVQWKVDNALQSGNSQESVTEQDSKDSTYSLSSTLTLSKADYEKHKVYACEVTHQGLSSPVTKSFNRGEC
notes: Full-length humanized IgG; also called H1/L3
- EC50 [1]: 2.27 µg/mL and 15.2 nM
- EC50 [2]: 2.35 µg/mL

B2: murine mAb 132F3F3H11 ("A8") (antibody, V domains shown)
VH: DVQLVESGGGLVQPGGSRKLSCAASGFTFSSSGMHWVRQAPEKGLEWVAYISSGSSSIYYADTVKGRFTISRDNPKNTLFLQMTSLRSEDTAMYYCARPYYYGSIAMDYWGQGTSVTVSS
VL: DIKMTQSPSSMYASLGERVTITCKASQDINSYLSWFQQKPGKSPKTLIYRANRLVDGVPSRFSGSGSGQDYSLTISSLEYEDMGIYYCLQYDEFPFTFGSGTKLEIK
- HuCXCR4 Binding IC50 (nM) (CXCR4 cAMP functional assay, antagonist mode against 5.0 nM SDF-1) [3]: 0.381 nM

B3: murine mAb 201D10A12C1 ("A15") (antibody, V domains shown)
VH: EVQLQQSGPVLVRPGASVKMSCKASGYAFTDFHLNWVKQSHGKSLEWIGVINPYNGGTNYNQKFKDKATLTVDKSSSTAYMELNRLTSEDSAVYYCARYYASRYGYAMDYWGQGTSVTVSS
VL: DIVMTQAAPSVPVTPGESVSISCRSSKSLLHSNGNTYLYWFLQRPGQSPQLLIYRMSNLASGVPDRFSGSGSGTAFTLRISRVEAEDVGIYYCMQHVEYPLTFGAGTKLELK
- HuCXCR4 Binding IC50 (nM) (CXCR4 cAMP functional assay, antagonist mode against 5.0 nM SDF-1) [3]: 1.18 nM

B4: murine mAb 201D10E9F2 ("A17") (antibody, V domains shown)
VH: B3 VH
VL: B3 VL
- HuCXCR4 Binding IC50 (nM) (CXCR4 cAMP functional assay, antagonist mode against 5.0 nM SDF-1) [3]: 1.48 nM
